Drawing on US20230203134A1 (published 2023), this text covers Kd and EC50 for four molecules.

By Kd is commonly meant the constant that tells how readily two partners part at equilibrium. Read a low Kd as tighter binding. One may read the EC50 as the midpoint of the concentration-response curve. Read a low EC50 as a more potent agent.

Test [1] concerns the target T1, SARS-CoV-2 S trimer (soluble spike ectodomain trimer) (SARS-CoV-2, UniProt P0DTC2 14-1213). Nature of the test: SPR. (In general: SPR reads the build-up and loss of mass on a sensor chip optically.)
Test [2] has as its target T2, SARS-CoV-2 receptor binding domain (RBD) (SARS-CoV-2, UniProt P0DTC2 319-591). Kind of test: ELISA.
Test [3] has as its target T1, SARS-CoV-2 S trimer (soluble spike …). Kind of test: ELISA.
The target is the same in test [4]. Kind of test: SPR. The source holds these as a separate data set.
In test [5] the target is T2, SARS-CoV-2 receptor binding domain (RBD). Kind of test: SPR.
Test [6] addresses T1, SARS-CoV-2 S trimer (soluble spike …). Kind of test: SPR. This is another data set of the same source.

Where two headings read alike, the source gives them in different places.

B1: monoclonal antibody 2-15 (antibody, V domains shown)
VH: QVQLVQSGAEVKKPGASVRVSCKASGYTFTGYYMHWVRQAPGQGLEWMGWINPISDGTNYAQKFQGWVTMTRDTSISTVYMELSRLRSDDTAVYYCARGGSRCSGGNCYGWAYDAFDIWGQGTMITVSS
VL: QSALTQPASVSGSPGQSITISCTGTSSDVGGYNFVSWYQQHPGKAPKLMIYDVSKRPSGVSNRFSGSKSGNTASLTISGLQAEDEADCYCSSYTSSSTFVFGTGTKVTVL
Turning to B1, binding in test [1] was put at a Kd of 5.7 nM. Moreover, the EC50 in test [2] came out at 0.008 µg/mL; in test [3], 0.006 µg/mL.

B2: monoclonal antibody 2-51 (antibody, V domains shown)
VH: QVQLVQSGAEVKKPGASVKVSCKVSGYTLIELSMHWVRQAPGKGLEWMGGFDPEDVETIYAQQFQGRVTMTEDTSTDTAYMELSSLRSEDTAVYYCATGWAYKSTWYFGYWGQGTLVTVSS
VL: QSALTQPPSASGSPGQSVTISCTGTSSDVGGYNYVSWYQQHPGKAPKLMIYEVSKRPSGVPDRFSGSKSGNTASLTVSGLQAEDEADYYCSSYAGSRMGFGGGTKLTVL
Consider B2, for which the EC50 in test [3] is 0.017 µg/mL. Besides, in test [4], binding was put at a Kd of 77.1 nM.

B3: monoclonal antibody 2-38 (antibody, V domains shown)
VH: EVQLVESGGGLVKPGGSLRLSCAASGFTFSSYSMNWVRQAPGKGLEWVSSISSSSSYIYYADSVKGRFTISRDNAKNSLYLQMNSLRAEDTAVYYCTRAGWELRLDAFDIWGQGTMVTVSS
VL: SSELTQDPAVSVALGQTVRITCQGDSLRSSYASWYQQKPGQAPILVIYDKNNRPSGIPDRFSGSSSGNTASLTITGAQAEDEADYYCNSRDSSGILFGGGTKLTVL
Molecule B3 yielded a Kd in test [1] of 51.4 nM. The 50% effective concentration (EC50) was found to be 0.289 µg/mL in test [2] and 0.305 µg/mL in test [3].

B4: monoclonal antibody 2-4 (antibody, V domains shown)
VH: QVQLVQSGAEVKKPGASVKVSCKASGYTFTGYYMHWVRQAPGQGLEWMGWINPNSGGTNYTQMFQGRVTMTRDTSISTAYMEVSRLRSDDTAVYYCARDRSWAVVYYYMDVWGKGTTVTVSS
VL: QSALTQPPSASGSPGQSVTISCTGTSSDVGGYNYVSWYQQHPGKAPKLMIYEVSKRPSGVPDRFSGSKSGNTASLTVSGLQAEDEADYYCSSYAGSNNLVFGGGTKLTVL
In the case of B4, the Kd in test [1] was determined as 8.7 nM; in test [5], 34.2 nM; in test [6], 41.2 nM. Further, the half-maximal effective concentration (EC50) in test [2] was 0.021 µg/mL; in test [3] it was 0.018 µg/mL.
